Reference: PMC5906480, “Tau Antibody Structure Reveals a Molecular Switch Defining a Pathological Conformation of the Tau Protein” (Scientific Reports, 2018)

Experiments:
[1] = biological target: FITC-conjugated tau peptide pS396/pS404; assay: Fluorescence polarization direct binding, pS396/pS404 peptide; details: Fab C5.2 675 nM to 0.08 nM; FITC-peptide 300 nM; 25 °C; 50 mM Tris, 100 mM NaCl, 0.1% pluronic F-127; ex 485/em 535 nm; triplicate; nonlinear regression
Experimental: (§1) FITC-labeled peptides used in fluorescence polarization experiments were synthesized by Biomatik (Cambridge, ON, Canada). Fab C5.2 affinity was determined using a fluorescence polarization-based direct binding assay with fluorescein isothiocyanate (FITC)-conjugated peptides (Table 1). The FITC-peptide concentration was kept constant at 300 nM while Fab C5.2 was serially diluted from 675 nM to 0.08 nM. Data was collected at 25 °C using excitation and emission wavelengths of 485 nm and 535 nm, respectively. Each experiment was done in a single 96-well plate and calculated in triplicate (buffer: 50 mM Tris, 100 mM NaCl, 0.1% pluronic F-127). The experiments were performed with a DTX 880 Multimode Detector (Beckman Coulter, Jersey City, NJ). Fluorescence data was reduced using multimode detection software and KD values were calculated in GraphPad Prism 7.0 using a nonlinear regression model.
(§2) To accurately measure the C5.2 binding affinity, we performed fluorescence polarization experiments to determine dissociation constants (KD), using the Fab C5.2 and four differentially phosphorylated FITC-conjugated peptides (Table 1). The peptide concentration was kept constant while that of Fab C5.2 was serially diluted from 675 nM to 0.08 nM (Fig. 1d). […] In comparison with a […] IgG molecule, each Fab fragment contains a single binding site so the KD was calculated using a nonlinear model.

[2] = system: FITC-conjugated non-phosphorylated tau peptide; assay: Fluorescence polarization direct binding, non-phosphorylated peptide; details: Fab C5.2 675 nM to 0.08 nM; FITC-peptide 300 nM; 25 °C; fluorescence dip around 10 nM Fab due to protein aggregation and fluorophore quenching
Experimental: as §1, §2

[3] = biological target: FITC-conjugated tau peptide pS396; assay: Fluorescence polarization direct binding, pS396 peptide; details: Fab C5.2 675 nM to 0.08 nM; FITC-peptide 300 nM; 25 °C; 50 mM Tris, 100 mM NaCl, 0.1% pluronic F-127; ex 485/em 535 nm; triplicate; nonlinear regression
Experimental: as §1, §2

[4] = system: FITC-conjugated tau peptide pS404; assay: Fluorescence polarization direct binding, pS404 peptide; details: Fab C5.2 675 nM to 0.08 nM; FITC-peptide 300 nM; 25 °C; fluorescence dip around 10 nM Fab due to protein aggregation and fluorophore quenching
Experimental: as §1, §2

Kd [1]: 15.4 nM | Recognition of the non-phosphorylated peptide [2]: does not recognize | Kd [3]: 14.9 nM | Recognition of peptide pS404 [4]: does not recognize
B1: Fab C5.2: Fab fragment of C5.2 prepared by papain digestion (antibody, V domains shown)
VH: QVQLQQSDAELVKPGASVKISCKASGYTFTDRTIHWVKQRPEQGLEWIGYIYPGDDSTKYNDMFKAKATLTADKSSNTAYMQLNSLTSDDSAVYFCARRGTMDYWGQGTSVTVSS
VL: DVQMIQSPSSLSASLGDIVTMTCQASQDTSINLNWFQQKPGKAPKLLIYGASNLEDGVPSRFSGSRYGTDFTLTISSLEDEDMATYFCLQHTYLPFTFGSGTKLEIK
